# Reference: the RNAGym collection of RNA variant scans (doi:10.1093/molbev/msab373)
# B1: Azoarcus group I ribozyme (parent)
# chain: GUGCCUUGCGCCGGGAAACCACGCAAGGGAUGGUGUCAAAUUCGGCGAAACCUAAGCGCCCGCCCGGGCGUAUGGCAACGCCGAGCCAAGCUUCGGCGCCUGCGCCGAUGAAGGUGUAGAGACUAGACGGCACCCACCUAAGGCAAACGCUAUGGUGAAGGCAUAGUCCAGGGAGUGGCGAAAGUCACACAAACCGG
# Variants of: B1
# Experiment: reverse-splicing fitness (ratio to wild type); higher = more active; in vitro selection; Mg2+ level not given
# Outline: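 An in vitro group I ribozyme library with randomized positions was T7-transcribed and gel-purified. In triplicate, 10 pmol RNA in EPPS pH 7.5 was reacted with 50 pmoles of a 30-nt RNA substrate for 1 h at 37 °C across several added MgCl2 levels (1–48 mM), then stopped with EDTA. Products were reverse transcribed from a substrate-complementary primer, PCR-amplified and sequenced (HiSeq 4000). Fitness is a variant's read proportion after selection over that before, normalised to wild type.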
row,Variant,reverse-splicing fitness
1,C82U A145G C150A C169G U176G,0.0053
2,C82U A145C C150A C169G U176G,0.00485
3,C82U A145C C150A C169G U176C,0.00995
4,C82U A145C C150A C169G U176A,0.0178
5,C82U A120U C150A U176A,0.00756
6,C82U A120U C150A U176C,0.0109
7,C82U A120U C150A U176G,0.00418
8,C82U A120U C150A C169G U176C,0.00268
9,C82U A120U C150A C169G U176G,0.00171
10,C82U A120U C150A C169G U176A,0.00443
11,C82U A120U C150A C169U U176C,0.00331
12,C82U A120U C150A C169U U176G,0.00201
13,C82U A120U C150A C169U U176A,0.00411
14,C82U A120U A145C C169A U176C,0.0016
15,C82U A120U A145C C169A U176A,0.00163
16,C82U A120U A145C C169A U176G,0.00159
17,C82U A120U A145C C150U C169U U176G,0.0015
18,C82U A120U A145C C150U C169U U176C,0.00187
19,C82U A120U A145C C150U C169U U176A,0.00232
20,C82U A120U A145G C150A C169U U176A,0.0038
21,C82U A120U A145G C150A C169U U176G,0.00199

row,Variant,reverse-splicing fitness
1,C82U A120U A145G C150A C169U U176C,0.00329
2,C82U A120U A145G C169U U176G,0.00155
3,C82U A120U A145G C169U U176A,0.00293
4,C82U A120U A145G C169U U176C,0.00381
5,C82U A145G C150G C169A U176C,0.0125
6,C82U A145G C150G C169A U176A,0.0146
7,C82U A145G C150G C169A U176G,0.00764
8,C82U A145C C150U C169U U176A,0.0121
9,C82U A145C C150U C169U U176G,0.00478
10,C82U A145C C150U C169U U176C,0.00673
11,C82U A120U C169A U176A,0.00238
12,C82U A120U C169A U176C,0.00216
13,C82U A120U C169A U176G,0.00126
14,C82U A120U A145U C150G C169G U176C,0.00209
15,C82U A120U A145U C150G C169G U176G,0.00173
16,C82U A120U A145U C150G C169G U176A,0.00198
17,C82U A145C C169G,0.00966
18,C82U A145C C169U,0.0123
19,C82U A145C C169A,0.00714
20,C82U A145C C169A U176C,0.00633
21,C82U A145C C169A U176G,0.00383

row,Variant,reverse-splicing fitness
1,C82U A145C C169A U176A,0.00806
2,C82U A120U A145C C150U C169G,0.00257
3,C82U A120U A145C C150U C169U,0.00331
4,C82U A120U A145C C150U C169A,0.00167
5,C82U A120U C169U U176A,0.00362
6,C82U A120U C169U U176G,0.00164
7,C82U A120U C169U U176C,0.0045
8,C82U A120U C150G C169U U176C,0.00349
9,C82U A120U C150G C169U U176G,0.00244
10,C82U A120U C150G C169U U176A,0.00334
11,C82U A120U C150U C169G U176C,0.00284
12,C82U A120U C150U C169G U176A,0.0036
13,C82U A120U C150U C169G U176G,0.00155
14,C82U A145C C169G U176G,0.00428
15,C82U A145C C169G U176A,0.0179
16,C82U A145C C169G U176C,0.00995
17,C82U A145C C150U U176A,0.114
18,C82U A145C C150U U176C,0.127
19,C82U A145C C150U U176G,0.0408
20,C82U A120U A145G C169A U176C,0.00239
21,C82U A120U A145G C169A U176A,0.0025

row,Variant,reverse-splicing fitness
1,C82U A120U A145G C169A U176G,0.00152
2,C82U A120U C150A C169G,0.00313
3,C82U A120U C150A C169A,0.00297
4,C82U A120U C150A C169U,0.00341
5,C82U A120U A145C C150A U176C,0.00532
6,C82U A120U A145C C150A U176A,0.00377
7,C82U A120U A145C C150A U176G,0.00282
8,C82U A145C C150G C169G,0.00699
9,C82U A145C C150G C169U,0.00824
10,C82U A145C C150G C169A,0.00743
11,C82U A145C U176G,0.141
12,C82U A145C U176C,0.449
13,C82U A145C U176A,0.38
14,C82U A120U A145C C169U U176A,0.00253
15,C82U A120U A145C C169U U176C,0.00289
16,C82U A120U A145C C169U U176G,0.00172
17,C82U A145G C150A U176C,0.0964
18,C82U A145G C150A U176G,0.0228
19,C82U A145G C150A U176A,0.0793
20,C82U A145C,0.598
21,C82U A145G,0.63
